Data: US9193755B1, “TFEB variants and uses thereof” (Fondazione Telethon, priority 2011, dated 2015)

Tests used:
TFEB target genes = experiment: qPCR of TFEB target genes after transfection with normal and mutant TFEB plasmids; assay type: cell-based, human; details: 24 h post-transfection, compared to TFEB(WT), TFEB(S332A) and TFEB(S402A)
Text: (§1) Asterisks in the graph indicate that the P-value was <0.05.

HeLa cells [1] = experiment: Subcellular localization and mobility of mutated TFEB-3xFlag in HeLa cells; assay type: cell-based, human; details: for TFEB subcellular localization of serine-to-alanine mutants: HeLa cells, Flag immunostaining
Description: Cells were transiently transfected with DNA plasmids pRK5-mycPAT1, pCEP4-TFEB-his, pC1G2-TFEB, and p3 x FLAG-CMVTFEB using lipofectamine2000 or LTX (Invitrogen) according to the protocol from manufacturer. Site-direct mutagenesis was performed according to the manufacturer instructions (Stratagene) verifying the correct mutagenesis by sequencing.
Cells were seeded at 50% of confluence in 6 well dishes and serum starved overnight (ON). Normal medium was added the following day either in presence of DMSO or kinase inhibitors. Subcellular fractionation was carried out as previously reported. Briefly, cells were lysed in 0.5 Triton X-100 lysis buffer (50 mM Tris-HCl, 0.5% triton, 137.5 mM NaCl, 10% glycerol, 5 mM EDTA supplemented with fresh protease and phosphatase inhibitors. Supernatant represented cytosolic fraction while nuclear pellet was washed twice and lysed in 0.5 Triton X-100 buffer 0.5% SDS and sonicated.

HeLa cells [2] = experiment: Autophagosome number / LC3II level in HeLa cells; assay type: cell-based, human
Text: Cells or tissues were solubilized in RIPA buffer supplemented with protease (ROCHE) and Phosphatase (SIGMA) inhibitors. From 10 to 30 micrograms were loaded on 4-12% Bis-Tris gel (NUPAGE, Invitrogen), transferred to PVDF membranes and analyzed by western blot using the ECL method (Pierce). The following antibodies were used: LC3 (Novus Biological), FLAG, b-ACTIN, TUBULIN (SIGMA), HA (Covance), H3, ERK1/2, p-ERK1/2, p-AKT, p-70S6K (Cell Signaling), ERK2 (Santa Cruz). Protein levels were quantified by using ImageJ software analysis.

[3] = test system: autophagy-related genes in HeLa cells; experiment: qPCR of autophagy-related genes in TFEB stable overexpressing HeLa cells; assay type: cell-based, human; details: TFEB stable overexpression
Text: as §1

LSDs = details: TFEB overexpression (45); cited from earlier work
[4] = test system: HeLa cells stably expressing GFP-mRFP-LC3; experiment: RFP-GFP tandem tagged LC3 autophagosome-lysosome fusion assay; assay type: cell-based, human; details: TFEB overexpressing cells compared to control cells
[5] = test system: mouse embryonic fibroblast (MEFs); experiment: Electron microscopy of MEFs infected with lentivirus overexpressing TFEB; assay type: cell-based
Description: Control and TFEB-overexpressing cells were washed with PBS, and fixed in 1% glutaraldehyde dissolved in 0.2 M Hepes buffer (pH 7.4) for 30 min at room temperature. The cells were then postfixed for 2 h in OsO4. After dehydration in graded series of ethanol, the cells were embedded in Epon 812 (Fluka) and polymerized at 60° C. for 72 h. Thin sections were cut at the Leica EM UC6, counterstained with uranyl acetate and lead citrate. EM images were acquired from thin sections using a Philips Tecnai-12 electron microscope equipped with an ULTRA VIEW CCD digital camera (Philips, Eindhoven, The Netherlands). Quantification of vacuolization was performed using the AnalySIS software (Soft Imaging Systems GmbH, Munster, Germany). Selection of cells for quantification was based on their suitability for stereologic analysis, i.e. only cells sectioned through their central region (detected on the basis of the presence of Golgi membranes) were analyzed.

[6] = test system: MEFs, NSCs, HeLa, and COS-7 cells; experiment: Release of lysosomal enzymes in the culture medium; assay type: cell-based; details: TFEB overexpression; acid phosphatase, beta-galactosidase, beta-hexosaminidase
Description: Lysosomal enzymes acid phosphatase, beta-galactosidase, and beta-hexosaminidaseactivities were measured using the appropriate fluorimetric or colorimetric substrates. SGSH activity was measured following protocols described in Fraldi et al., Hum Mol Gen 2007 (33).

long-lived proteins = experiment: Degradation of long-lived proteins; assay type: cell-based; details: TFEB overexpression
Description: Sub-confluent cells were incubated with L-U^14C-serine for 20 h and chased for 1 h with cold media to degrade short-lived proteins. Subsequently cells were incubated with either normal media or starvation media (eventually in the presence of 3-MA) for 4 h. The rate of long-lived protein degradation was calculated from the ratio of soluble radioactivity in the media to that insoluble in the acid-precipitable cell pellet.

B1: TFEB(S142A): TFEB variant with serine 142 mutated to alanine (protein, UniProt P19484 1-476, looked up, variant S142A)
Transcription factor EB: MASRIGLRMQLMREQAQQEEQRERMQQQAVMHYMQQQQQQQQQQLGGPPTPAINTPVHFQSPPPVPGEVLKVQSYLENPTSYHLQQSQHQKVREYLSETYGNKFAAHISPAQGSPKPPPAASPGVRAGHVLSSSAGNSAPNAPMAMLHIGSNPERELDDVIDNIMRLDDVLGYINPEMQMPNTLPLSSSHLNVYSSDPQVTASLVGVTSSSCPADLTQKRELTDAESRALAKERQKKDNHNLIERRRRFNINDRIKELGMLIPKANDLDVRWNKGTILKASVDYIRRMQKDLQKSRELENHSRRLEMTNKQLWLRIQELEMQARVHGLPTTSPSGMNMAELAQQVVKQELPSEEGPGEALMLGAEVPDPEPLPALPPQAPLPLPTQPPSPFHHLDFSHSLSFGGREDEGPPGYPEPLAPGHGSPFPSLSKKDLDLMLLDDSLLPLASDPLLSTMSPEASKASSRRSSFSMEEGDVL
modifications: 3xFlag tag
notes: TFEB variant with serine 142 mutated to alanine
expression levels of TFEB target genes (TFEB target genes): increased expression levels | TFEB subcellular localization of serine-to-alanine mutants (HeLa cells [1]): constitutive nuclear localization | nuclear localization of mutant TFEB (HeLa cells [1]; compared to TFEB(WT), TFEB(S332A) and TFEB(S402A)): significantly increased nuclear localization | induction of the autophagic/lysosomal system (autophagosomes, lysosomes, autophagolysosomes) (HeLa cells [2]; compared to wt TFEB): stronger induction

B2: S211A: TFEB with serine-to-alanine mutation at position 211 (protein, UniProt P19484 1-476, looked up, variant S211A)
Transcription factor EB: MASRIGLRMQLMREQAQQEEQRERMQQQAVMHYMQQQQQQQQQQLGGPPTPAINTPVHFQSPPPVPGEVLKVQSYLENPTSYHLQQSQHQKVREYLSETYGNKFAAHISPAQGSPKPPPAASPGVRAGHVLSSSAGNSAPNSPMAMLHIGSNPERELDDVIDNIMRLDDVLGYINPEMQMPNTLPLSSSHLNVYSSDPQVTASLVGVTSSACPADLTQKRELTDAESRALAKERQKKDNHNLIERRRRFNINDRIKELGMLIPKANDLDVRWNKGTILKASVDYIRRMQKDLQKSRELENHSRRLEMTNKQLWLRIQELEMQARVHGLPTTSPSGMNMAELAQQVVKQELPSEEGPGEALMLGAEVPDPEPLPALPPQAPLPLPTQPPSPFHHLDFSHSLSFGGREDEGPPGYPEPLAPGHGSPFPSLSKKDLDLMLLDDSLLPLASDPLLSTMSPEASKASSRRSSFSMEEGDVL
TFEB subcellular localization of serine-to-alanine mutants (HeLa cells [1]): constitutive nuclear localization

B3: TFEB: transcription factor EB, Seq. Id No. 2, overexpressed from plasmid, lentivirus or stable clone (protein, listed as Homo sapiens)
chain: MASRIGLRMQLMREQAQQEEQRERMQQQAVMHYMQQQQQQQQQQLGGPPTPAINTPVHFQSPPPVPGEVLKVQSYLENPTSYHLQQSQHQKVREYLSETYGNKFAAHISPAQGSPKPPPAASPGVRAGHVLSSSAGNSAPNSPMAMLHIGSNPERELDDVIDNIMRLDDVLGYINPEMQMPNTLPLSSSHLNVYSSDPQVTASLVGVTSSSCPADLTQKRELTDAESRALAKERQKKDNHNLIERRRRFNINDRIKELGMLIPKANDLDVRWNKGTILKASVDYIRRMQKDLQKSRELENHSRRLEMTNKQLWLRIQELEMQARVHGLPTTSPSGMNMAELAQQVVKQELPSEEGPGEALMLGAEVPDPEPLPALPPQAPLPLPTQPPSPFHHLDFSHSLSFGGREDEGPPGYPEPLAPGHGSPFPSLSKKDLDLMLLDDSLLPLASDPLLSTMSPEASKASSRRSSFSMEEGDVL
AKT1 FOLD INCREASE [3]: 1.2 fold | AMBRA1 FOLD INCREASE [3]: 1.2 fold | APP FOLD INCREASE [3]: 1.4 fold | ARSA FOLD INCREASE [3]: 1.3 fold | ATG3 FOLD INCREASE [3]: 1.2 fold | ATG4A FOLD INCREASE [3]: 1.2 fold | ATG4B FOLD INCREASE [3]: 1.3 fold | ATG4C FOLD INCREASE [3]: 1.1 fold | ATG4D FOLD INCREASE [3]: 1.6 fold | ATG5 FOLD INCREASE [3]: 1.2 fold | ATG7 FOLD INCREASE [3]: 1.2 fold | ATG9A FOLD INCREASE [3]: 1.1 fold | ATG9B FOLD INCREASE [3]: 5.6 fold | ATG10 FOLD INCREASE [3]: 1.1 fold | ATG12 FOLD INCREASE [3]: 1.2 fold | ATG16L1 FOLD INCREASE [3]: −1.2 fold | ATG16L2 FOLD INCREASE [3]: 1.1 fold | BAD FOLD INCREASE [3]: 1.0 fold | BAK1 FOLD INCREASE [3]: 1.4 fold | BAX FOLD INCREASE [3]: 1.2 fold | BCL2 FOLD INCREASE [3]: 1.5 fold | BECN1 FOLD INCREASE [3]: 1.2 fold | BID FOLD INCREASE [3]: 1.2 fold | BNIP3 FOLD INCREASE [3]: 1.1 fold | CLN3 FOLD INCREASE [3]: 1.5 fold | CXCR4 FOLD INCREASE [3]: 1.3 fold | DRAM FOLD INCREASE [3]: 1.8 fold | EIF2AK3 FOLD INCREASE [3]: 1.4 fold | EIF4G1 FOLD INCREASE [3]: 1.3 fold | FAM176A FOLD INCREASE [3]: 1.6 fold | GAA FOLD INCREASE [3]: 1.3 fold | GABARAP FOLD INCREASE [3]: 1.1 fold | GABARAPL1 FOLD INCREASE [3]: 1.0 fold | GABARAPL2 FOLD INCREASE [3]: 1.1 fold | HGS FOLD INCREASE [3]: −1.1 fold | HTT FOLD INCREASE [3]: 1.0 fold | MAP1LC3A FOLD INCREASE [3]: 1.1 fold | MAP1LC3B FOLD INCREASE [3]: 1.2 fold | PIK3C3 FOLD INCREASE [3]: −1.2 fold | PIK3R4 FOLD INCREASE [3]: 1.1 fold | PTEN FOLD INCREASE [3]: 1.1 fold | RAB24 FOLD INCREASE [3]: 1.2 fold | RGS19 FOLD INCREASE [3]: 1.2 fold | SNCA FOLD INCREASE [3]: 1.6 fold | SQSTM1 FOLD INCREASE [3]: 2.4 fold | TP53 FOLD INCREASE [3]: 1.1 fold | ULK1 FOLD INCREASE [3]: 1.1 fold | UVRAG FOLD INCREASE [3]: 1.8 fold | VPS11 FOLD INCREASE [3]: 1.4 fold | VPS18 FOLD INCREASE [3]: 1.4 fold | WIPI FOLD INCREASE [3]: 2.5 fold | substrate clearance and cellular vacuolization in LSDs (LSDs): able to promote substrate clearance and to rescue cellular vacuolization | number of autophagolysosomes [4]: higher | number of autophagosomes by electron microscopy [5]: An increase in the number of autophagosomes | release of lysosomal enzymes in the culture medium [6]: increases the release of lysosomal enzymes | degradation of long-lived proteins (long-lived proteins): enhanced | number of autophagosomes (LC3 marker) (HeLa cells [2]; stable TFEB overexpression in HeLa cells): increased significantly

B4: TFEB S142D: phospho-mimetic mutant of TFEB (protein, UniProt P19484 1-476, looked up, variant S142D)
Transcription factor EB: MASRIGLRMQLMREQAQQEEQRERMQQQAVMHYMQQQQQQQQQQLGGPPTPAINTPVHFQSPPPVPGEVLKVQSYLENPTSYHLQQSQHQKVREYLSETYGNKFAAHISPAQGSPKPPPAASPGVRAGHVLSSSAGNSAPNDPMAMLHIGSNPERELDDVIDNIMRLDDVLGYINPEMQMPNTLPLSSSHLNVYSSDPQVTASLVGVTSSSCPADLTQKRELTDAESRALAKERQKKDNHNLIERRRRFNINDRIKELGMLIPKANDLDVRWNKGTILKASVDYIRRMQKDLQKSRELENHSRRLEMTNKQLWLRIQELEMQARVHGLPTTSPSGMNMAELAQQVVKQELPSEEGPGEALMLGAEVPDPEPLPALPPQAPLPLPTQPPSPFHHLDFSHSLSFGGREDEGPPGYPEPLAPGHGSPFPSLSKKDLDLMLLDDSLLPLASDPLLSTMSPEASKASSRRSSFSMEEGDVL
modifications: 3xFlag tag
translocation into the nucleus upon nutrient starvation (HeLa cells [1]; nutrient starvation): unable to translocate into the nucleus
